Test [1] has as its target APLNR(K235)-cpGFP (human) (UniProt P35414).
For test [2], the target named is APLNR(F233)-cpGFP (human) (UniProt P35414).
Test [3] concerns the target APLNR(K235)-cpGFP expressed in zebrafish embryos (human) (UniProt P35414).
Test [4] has the same target. The source holds these as a separate data set.
Test [5] has the same target. The source holds these as a separate data set.

B1: Apela(19-32) (peptide)
peptide: QRRCMPLHSRVPFP
For B1, the EC50 of the increase of cpGFP fluorescence (conformational change of the biosensor), stable HEK293T cells, 37 °C was 8 nM in test [1] and 7 nM in test [2].

B2: zebrafish Apela (ligand)
chain: DKHGTKHDFLNLRRKYRRHNCPKKRCLPLHSRVPFP
On to B2, for which, in test [3], the cpGFP fluorescence intensity of the biosensor in zebrafish embryos at 6 hpf, after heat shock-induced ubiquitous apela overexpression, against wildtype siblings is 27 % increase.

B3: zebrafish Apelin (ligand)
chain: GPMASTEHSKEIEEVGSMRTPLRQNPARAGRSQRPAGWRRRRPRPRLSHKGPMPF
B3: in test [4], the cpGFP fluorescence intensity of the biosensor in intersegmental vessels of zebrafish embryos at 28 hpf, after heat shock-induced apln overexpression, against control siblings was 250 % increase. In test [3], this molecule returned a cpGFP fluorescence intensity of the biosensor in zebrafish embryos at 6 hpf, after heat shock-induced ubiquitous apln overexpression, against wildtype siblings of 27 % increase. The cpGFP fluorescence intensity of single cells at 1 to 5 cell distances from an apln-expressing cell, zebrafish embryos at 6 hpf; reduction against distance 1 in test [5] is 23 % reduction.
